In patent US20210162009A1 (MEDICAL COLLEGE OF WISCONSIN, published 2021):

Biological target: T1, wild-type CXCL12 (Homo sapiens (Human), UniProt P48061 22-89)
T1 construct: also called CXCL12WT; WT
Assay: 125I-CXCL12 displacement from CXCR4
Method: A) The affinity of CXCL12 variants for CXCR4 was determined by ¹²⁵I-CXCL12 displacement. […] C) Intracellular calcium mobilization of cells stimulated by 10 nM CXCL12 variants was measured in the presence or absence of the Gαi inhibitor, pertussis toxin (PTX). From Drury, PNAS, 2011.

T1 sequence (P48061 22-89 limits assumed): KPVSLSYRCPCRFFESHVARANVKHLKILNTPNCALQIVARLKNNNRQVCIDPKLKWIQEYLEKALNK

Kd: 25 nM
B1: CXC chemokine receptor 4 (CXCR4) (receptor, UniProt P61073 1-352, looked up)
chain: MEGISIYTSDNYTEEMGSGDYDSMKEPCFREENANFNKIFLPTIYSIIFLTGIVGNGLVILVMGYQKKLRSMTDKYRLHLSVADLLFVITLPFWAVDAVANWYFGNFLCKAVHVIYTVNLYSSVLILAFISLDRYLAIVHATNSQRPRKLLAEKVVYVGVWIPALLLTIPDFIFANVSEADDRYICDRFYPNDLWVVVFQFQHIMVGLILPGIVILSCYCIIISKLSHSKGHQKRKALKTTVILILAFFACWLPYYIGISIDSFILLEIIKQGCEFENTVHKWISITEALAFFHCCLNPILYAFLGAKFKTSAQHALTSVSRGSSLKILSKGKRGGHSSVSTESESSSFHSS
